Columns and labels:
DP-1 = target: T1, DP-1 (Homo sapiens, UniProt Q14186); assay: Co-immunoprecipitation of ectopic E2F-1 with DP-1 in U2OS cells; assay type: cell-based; details: expression vector transfected into U2OS cells, HA11 IP
T1 construct: endogenous in cells; host or cells: U2OS
T1 sequence (Q14186 1-410): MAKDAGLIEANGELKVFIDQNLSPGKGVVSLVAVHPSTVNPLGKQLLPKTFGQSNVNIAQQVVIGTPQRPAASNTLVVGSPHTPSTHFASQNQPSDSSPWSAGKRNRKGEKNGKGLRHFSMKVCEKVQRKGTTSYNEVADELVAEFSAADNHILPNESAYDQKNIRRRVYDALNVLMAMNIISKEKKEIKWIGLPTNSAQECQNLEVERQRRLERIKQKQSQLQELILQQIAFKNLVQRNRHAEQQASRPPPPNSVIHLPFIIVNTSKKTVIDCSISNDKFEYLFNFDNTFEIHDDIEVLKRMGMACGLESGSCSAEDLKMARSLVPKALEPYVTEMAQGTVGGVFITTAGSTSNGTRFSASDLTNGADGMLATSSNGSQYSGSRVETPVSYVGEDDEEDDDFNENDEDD
Source text: (§1) To establish whether E2F-1 was able to bind to PRMT5 in cells, the interaction between ectopic wild-type E2F-1 or KKK with PRMT5 was studied. […] Either a wild-type E2F-1 expression vector or a KKK expression vector was transfected into U2OS cells, and HA11 antibody was used for immunoprecipitation (IP) followed by immunoblotting with HA11 (E2F-1), PRMT5 or DP-1 as indicated. The level of input (In) protein is indicated. […] In contrast, binding to DP-1 was equivalent for both wild-type E2F-1 and KKK. […] Further, the RGRGR motif is necessary for the interaction, which also encompasses the site of PRMT5 methylation.
(§2) Cells were either left untransfected or transfected with expression vectors as indicated. At 48 h post transfection, cells were harvested in TNN buffer (50 mM Tris-HC1 [pH 7.4], 150 mM NaCl, 5 mM EDTA, 0.5% Ipegal, 50 mM NaF, 0.2 mM sodium orthovanadate and protease inhibitor cocktail (1 mM PMSF, leupeptin [1 μg/ml], aprotinin [1 μg/m1], and pepstatin A [1 μg/ml])) and rotated at 4° C. for 30 min to 1 h. The cell lysate was then homogenised, centrifuged at 11000 rpm for 10 min to remove cell debris and the supernatant collected. All lysates were normalized for protein concentration and, where appropriate, for transfection by β-galactosidase activity. […] Enhanced chemi-luminescence (Pierce Biotechnology, Rockford, Ill.) was used to visualize antibody binding.

PRMT5 [1] = target: T2, PRMT5 (Homo sapiens, UniProt O14744); assay: GST binding assay with U2OS cell lysate, PRMT5 immunoblot; parameters: The indicated GST proteins were incubated with U2OS cell lysate; endogenous in cells; host or cells: U2OS; details: GST-E2F-1 proteins incubated with U2OS cell lysate
Procedure: It was then assessed whether E2F-1 could interact with PRMT5 and thereafter the role of each R residue in mediating the interaction. […] The indicated GST proteins were incubated with U2OS cell lysate, and bound proteins immunoblotted using anti-GST (for input GST), DP-1 or PRMT5 antibodies. Binding to DP-1, the major heterodimeric partner for E2F-1 (Stevens and La Thangue 2003), served as a control since it bound equally to each of the E2F-1 proteins.
GST or GST tagged proteins (10 μg each) were incubated with agarose beads and damaged or undamaged U2OS cell lysates for 3 h. Beads were then washed with TNN buffer 3 times. SDS sample buffer was added to beads and samples were analysed by immunoblotting.
Target sequence in this assay (O14744 whole entry): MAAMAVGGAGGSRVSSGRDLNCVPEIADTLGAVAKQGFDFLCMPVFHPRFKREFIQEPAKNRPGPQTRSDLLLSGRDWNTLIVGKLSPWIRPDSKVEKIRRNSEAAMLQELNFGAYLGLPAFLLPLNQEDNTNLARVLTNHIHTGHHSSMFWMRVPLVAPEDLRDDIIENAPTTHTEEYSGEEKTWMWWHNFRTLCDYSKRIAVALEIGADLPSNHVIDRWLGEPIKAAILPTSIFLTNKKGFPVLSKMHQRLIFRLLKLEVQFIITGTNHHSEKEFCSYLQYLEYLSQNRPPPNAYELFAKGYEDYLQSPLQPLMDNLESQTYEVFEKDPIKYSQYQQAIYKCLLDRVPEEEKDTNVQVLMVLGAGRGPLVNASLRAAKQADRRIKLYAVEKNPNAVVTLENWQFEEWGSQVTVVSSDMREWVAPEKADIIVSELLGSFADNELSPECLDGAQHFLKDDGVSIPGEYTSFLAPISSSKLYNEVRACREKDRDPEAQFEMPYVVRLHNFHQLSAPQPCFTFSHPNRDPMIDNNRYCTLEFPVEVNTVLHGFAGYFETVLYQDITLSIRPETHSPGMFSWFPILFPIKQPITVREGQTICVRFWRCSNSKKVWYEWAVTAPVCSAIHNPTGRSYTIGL

PRMT5 [2] = target: T2, PRMT5; assay: Co-immunoprecipitation of ectopic E2F-1 with PRMT5 in U2OS cells; assay type: cell-based; parameters: The indicated GST proteins were incubated with U2OS cell lysate; endogenous in cells; host or cells: U2OS; details: expression vector transfected into U2OS cells, HA11 IP
Source text: as §1, §2
Target sequence in this assay (O14744 whole entry): as above

PRMT5 [3] = target: T2, PRMT5; assay: In vitro methyltransferase assay of E2F-1 proteins; assay type: biochemical; parameters: made in house; host or cells: U2OS cells (transient transfection, anti-Flag immunoprecipitation, elution); details: about 1 μg protein, 3H labeled SAM; mutants compared with wild-type E2F-1
Procedure: To assess whether the RGRGR motif was a direct target for PRMT5 methylation, a series of mutant derivatives of E2F-1 were made in which each arginine (R) residue was substituted with a lysine residue (K; FIG. 1a), and the ability of the mutant derivative to be methylated in vitro then assessed. […] In FIG. 1b(i) each of the indicated proteins (about 1 μg) was used in the methylation reaction. In vitro methylated samples were analysed by SDS-PAGE as described below. E2F-1 is indicated. In FIG. 1b(ii) samples in FIG. 1b(i) were counted (3H cpm as indicated). Histones treated with PRMT5 served as the positive control. The data shown provide one example taken from two different experiments.
Flag-PRMT5 plasmid was transfected into U2OS cells for 48 h. Cells were lysed and Flag-PRMT5 was immunoprecipitated with agarose beads and then eluted. The elute was mixed with recombinant substrates (GST fusion proteins or histones) in methylation reaction buffer (50 mM Tris, 0.1 mM EDTA, 50 mM NaCl) with ^3H labeled SAM (as —CH3 group donor) to a volume of 40 μl and incubated at 30° C. for 90 min. Half of the reactions were then spotted onto p81 membrane circles (Whatman) and air dried. The membranes were then washed three times, 5 min each in 50 ml of wash buffer (46 mM NaHCO3, 4 mM Na2CO3, pH 9.2). After washing briefly with acetone, membranes were air dried, placed in scintillation vials, immersed in scintillation fluid (Beckman Coulter) and disintegrations per minute (DPM) measured in a scintillation counter. The other half of the reactions were run on SDS-PAGE gel and used to detect ^3H auto-radioisotope/methylation signal.
Target sequence in this assay (O14744 whole entry): as above
Target sequence in this assay (Q9BQA1 whole entry partner): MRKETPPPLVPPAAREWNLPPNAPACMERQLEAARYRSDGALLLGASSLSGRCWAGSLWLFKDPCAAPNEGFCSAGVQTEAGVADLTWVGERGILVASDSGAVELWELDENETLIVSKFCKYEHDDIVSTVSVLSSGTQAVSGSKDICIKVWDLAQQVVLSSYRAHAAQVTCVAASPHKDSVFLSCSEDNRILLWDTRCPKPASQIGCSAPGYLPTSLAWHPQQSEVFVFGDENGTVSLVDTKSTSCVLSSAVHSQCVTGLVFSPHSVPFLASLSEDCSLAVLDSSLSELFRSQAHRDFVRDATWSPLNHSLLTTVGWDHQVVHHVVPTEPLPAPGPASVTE

## KKK: methylation-defective E2F-1 protein containing the mutations R109K, R111K and R113K
DP-1
  binding to DP-1 in cells: equivalent
PRMT5 [1]
  binding to PRMT5: completely devoid of PRMT5 binding
PRMT5 [2]
  co-immunoprecipitation with PRMT5: not apparent
PRMT5 [3]
  in vitro methylation by PRMT5: could not be methylated by PRMT5

— US8841274B2, “Protein arginine N-methyltransferase-5 method of cancer treatment” (priority 2009, dated 2014)
